Consider one substance from patent US20190330359A1.

pKd: −log10 of the molar value.

In this test the target is TNFR2 (human TNFR2, SEQ ID NO: 1) (human) (UniProt P20333). Kind of test: surface plasmon resonance (Pioneer SensiQ). Background: SPR reads the build-up and loss of mass on a sensor chip optically.
Chain of UniProt P20333 (P20333 23-257 limits assumed): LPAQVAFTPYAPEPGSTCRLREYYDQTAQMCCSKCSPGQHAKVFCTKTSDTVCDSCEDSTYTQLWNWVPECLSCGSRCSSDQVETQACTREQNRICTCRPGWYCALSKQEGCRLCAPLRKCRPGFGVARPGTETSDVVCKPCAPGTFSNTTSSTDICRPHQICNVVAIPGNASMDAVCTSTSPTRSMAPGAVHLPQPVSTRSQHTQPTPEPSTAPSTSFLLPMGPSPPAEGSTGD

With “Clone MAB726 (R&D Systems, Inc.) anti-TNFR2 antagonist monoclonal antibody”, the negative-log Kd (pKd) (in general, the Kd on a negative log10 scale, so that one unit is a factor of ten) was 9.21.
